From US7345160B2, “Aequorin and obelin mutants with differing wavelengths and bioluminescence” (University of Kentucky Research Foundation, priority 2004, dated 2008)
Numbering of substitutions follows the chain as printed. “And” between values parts separate entries of the source, which are not always exact repeats. Equal values may be shown once. Read-outs that look alike come from different tables or passages of the source.

How the values were obtained:
[1] = Emission spectra of obelin and obelin mutants with coelenterazine analogues; format: physicochemical; conditions: all coelenterazine analogues
Source text: Obelin mutants C75S/C51/S, C75S/C67, C158S, C151S, and wild type obelin were purified and multiple spectra taken and averaged (See FIG. 20).

[2] = general statement, cited from earlier work
[3] = Emission spectra (emission maximum) of purified aequorin mutants with coelenterazine analogues; format: physicochemical
Source text: In order to detect the inventive aequorin mutants, the use of an instrument capable of detecting flash-type bioluminescence over a wide range of wavelengths is envisaged. For example, a fiber optic sensor collects the bioluminescence signal emitted by the aequorin and transmits it to a grating that directs the beam of light to onto an optical array detector. In one embodiment, the system to acquire the spectra from the flash kinetics of aequorin and obelin luminescence consists of a microtiter plate reader. The optical path of the instrument is replaced with a high collecting efficiency fiber optic bundle. This fiberoptic bundle carries the emitted light into an Oriel Instruments Fixed Imaging Compact Spectrograph, the dispersed light is then fed into an ANDOR cooled CCD detector. See for example the SpectroSystem By Sciencewares, Inc (East Falmouth, Mass.).
Cysteine free aequorin (Mutant S), Y132I Mutant S aequorin, Aeq5 (Mutant S with a cysteine at position 5), and wild type Aequorin were purified and multiple spectra taken and averaged (See FIG. 1). […] Mutant S had emission maximums ranging from 448 nm to 491 nm. Y132I Mutant S has emission maximums ranging from 453 nm to 487 nm. Aequorin 5 had emission maximums ranging from 466 nm to 491 nm. The greatest spread in emission maximum thus far has been between MutS/CTZ i and MutS/CTZ hcp (448 nm, 491 nm, respectively (43 nm range)). […] The greatest spread in emission maxima wavelengths so far with the same coelenterazine is CTZ hcp with Aeq5 (476 nm) and MutS (448 nm) being 28 nm. Also, the maximum spread with the same CTZ's and different aequorins is 19 nm for i, ip, and f.
Mutant S, Mutant S Y132I and Aeq 5 final emission spectrums were the result of the average of three trials. Wild type aequorins final spectrum was the result of two trials. All mutants, except Aeq5, were purified to >95% purity using SDS-PAGE and silver staining. All coelenterazine analogues were diluted to 100 micrograms/ML methanol. Solvent composition, coelenterazine concentration, temperature, and incubation time, were the same for all trials except with N coelenterazine, which required a higher concentration of aequorin than the other coelenterazines to show activity. Concentrations of the different mutants were not identical. Half life determination of Y132I Mut S with coelenterazines i, ip, h, hcp, cp, fcp, f, and native were 23, 0.9, 0.4, 0.2, 0.6, 0.7, 2.6, and 1.2 seconds, respectively.

[4] = in solution at 4° C. for over a month; cited from earlier work

B1: Wild type obelin: bioluminescent protein from the marine hydroid Obelia longissima; SEQ ID NO: 6 (protein, listed as Obelia longissima)
chain: MSSKYAVKLKTDFDNPRWIKRHKHMFDFLDINGNGKITLDEIVSKASDDICAKLEATPEQTKRHQVCVEAFFRGCGMEYGKEIAFPQFLDGWKQLATSELKKWARNEPTLIREWGDAVFDIFDKDGSGTITLDEWKAYGKISGISPSQEDCEATFRHCDLDNSGDLDVDEMTRQHLGFWYTLDPEADGLYGNGVP
emission maxima [1]: 469 nm

B2: wild type aequorin: native recombinant aequorin encoded by SEQ ID NO: 1, purchased commercially (Aqualite from Molecular Probes) (protein, listed as Aequorea victoria)
chain: VKLTSDFDNPRWIGRHKHMFNFLDVNHNGKISLDEMVYKASDIVINNLGATPEQAKRHKDAVEAFFGGAGMKYGVETDWPAYIEGWKKLATDELEKYAKNEPTLIRIWGDALFDIVDKDQNGAITLDEWKAYTKAAGIIQSSEDCEETFRVCDIDESGQLDVDEMTRQHLGFWYTMDPACEKLYGGAVP
emission wavelength of aequorin [2]: 469-472 nm
emission wavelength of aequorin ([2]; listed as aequorin): 469 nm
emission wavelength of aequorin ([2]; listed as recombinant aequorin): 469 nm
emission maximum ([3]; over all coelenterazine analogues (i, ip, h, hcp, cp, fcp, f, n, native)): 472 nm
emission maximum ([3]; over all coelenterazine analogues (i, ip, h, hcp, cp, fcp, f, n, native), listed as Wild type aequorin): the same emission maxima for all coelenterazines analogues
emission maximum ([3]; over all coelenterazine analogues (i, ip, h, hcp, cp, fcp, f, n, native), listed as native recombinant aequorin): 472 nm
original activity retained on storage [4]: 85%

B3: Mutant S: aequorin mutant where the three cysteine residues are replaced with serine (positions 145, 152, 180); SEQ ID NO: 4 (protein, listed as Aequorea victoria)
chain: B2 chain with C145S, C152S, C180S
spread in emission maximum between CTZ i and CTZ hcp ([3]; same protein, CTZ i vs CTZ hcp): 43 nm
emission maximum ([3]; with CTZ hcp, listed as MutS): 491 nm and 448 nm
emission maximum ([3]; with CTZ i): 448 nm
